Measurements from article PMC6381284.

Target: KSHV glycoprotein H/glycoprotein L (gH/gL) (Kaposi's sarcoma-associated herpesvirus (KSHV)) (UniProt F5HAK9)
Chain of UniProt F5HAK9 (F5HAK9 whole entry, looked up): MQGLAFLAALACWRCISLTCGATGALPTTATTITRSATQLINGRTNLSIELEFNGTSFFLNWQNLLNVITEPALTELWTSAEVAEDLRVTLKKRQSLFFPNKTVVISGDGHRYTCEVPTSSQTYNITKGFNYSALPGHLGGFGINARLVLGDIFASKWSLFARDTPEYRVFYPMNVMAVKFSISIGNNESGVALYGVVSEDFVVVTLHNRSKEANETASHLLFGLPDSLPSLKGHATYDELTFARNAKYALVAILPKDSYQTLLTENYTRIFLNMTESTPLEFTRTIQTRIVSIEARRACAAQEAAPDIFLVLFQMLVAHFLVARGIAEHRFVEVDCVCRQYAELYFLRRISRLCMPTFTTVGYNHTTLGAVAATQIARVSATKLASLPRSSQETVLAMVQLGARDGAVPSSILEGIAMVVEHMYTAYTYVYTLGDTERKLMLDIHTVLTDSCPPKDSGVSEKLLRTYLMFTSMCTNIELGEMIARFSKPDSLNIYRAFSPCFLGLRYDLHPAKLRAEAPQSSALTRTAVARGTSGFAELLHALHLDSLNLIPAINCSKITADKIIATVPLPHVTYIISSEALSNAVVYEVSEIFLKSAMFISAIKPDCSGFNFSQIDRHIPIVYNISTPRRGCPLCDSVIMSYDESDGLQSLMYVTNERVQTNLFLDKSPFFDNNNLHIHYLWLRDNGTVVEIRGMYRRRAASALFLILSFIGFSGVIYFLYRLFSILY

With “Soluble EphA4-Fc (from UniProt P54764 20-547) (Fc fusion)” the virus-free cell-cell fusion (luciferase): CHO-K1 cells with EBV gB and KSHV gH/gL overlaid with HEK293T cells overexpressing membrane EphA4, compared with cells overexpressing EphA2 (% more fusion than with EphA2) was 33.
